In the DeepSol protein solubility set:

Assay: soluble on expression in E. coli; label from the status in PepcDB or PDB records

Row | Sequence | soluble on expression in E. coli
1 | MSFMDKVKDTANSAYESVENTAVGAKDGVVGAFNTVGEKIGGAYDSTKQYASDKVSAAGDYASEAGKKVGDAEDSMIQGAYDAKDSAKESASNAGNKISNAFTSLKDSITGDNAHKTGEALNDNYESVKESASEAADRLKEPAQNTADNAKDLANQTGEEMSDAFESVKQLTSDTAENAKENAHDAADTAKSYKDKAGEKASGILDSFKAHASDAKDSVENKASDAYNSAKDKAGDAWDSTKDAAGDAKDKTKSFTEKVGDKISGAYDSVKEKASDVADSFKAHSTDSKDNVENKAADAYNTAKDKASDAWDKTKDKAGEAKDKMGDAWDTTKDKAGDAWDTTKDKAGDGKGKAGDAWDTTKDKASDAWDTTKDKAGEAKDKMGEAWDHTKDKAGEAKDKASDAADDAQGKSKSMTEKIGDSISGAWESTKDTAVSAKDKTAEAAGKVGDSISGAYDTVKEKASDIADSFKAHSTDSKDNVENKAADAYNSAKDKASDAWDKTKDKAGDAKDKAADAWDTTKDKAGDAWDSTKDHAADAKDKASDAAGDAKDKSKSLTEKAGDAISGAYDSVKEKASDIADSFKAHSTNSKDNVENKASDAYNSAKDKASDAWDKTKDKAGEAKDKAGDAWDNTKDKAGNAWDSTKDKASDAWDTTKDKASDAKESAGDAADSAKDKSKSITETIGDKISGAYDSVKEKASDVADSFKAHSSDAQDTVEVSHHKYFNVFSSFE | soluble
2 | MSFSADEVRFLAQSEREIAEMTADLDLSKKSMISDVATLRKHFGDFGRAVAELAGARRSAVGKLPQDWLMCQESAQQTTPPAVSAERARRLKTALGENVIVHDVTCSIGTEGHELIDAGLRYLGSDLDFSRTLMAAHNLQGKNALIFRADALQPASRGADVIIADPARRAGGKRITNPAQLLPPLPSLLDAWINQPLAVKCAPGLDFSEWPGLVSIASVDGGVKEACLYTTDLADGETREAIVIKDGLIDRITNFEDDATGQDLAAAPGEFIIDPDGAIVRAGLVRHYAVREQLWMLDERIAYLTGNRIPEGTSGFRFIEEVPLKKLKSAMAAHDAGAVEILVRGVDVDPDQLRKRLQLKGTKAMSVVITRIGSRGVALICGPRERA | not soluble
3 | MSFVPCTTAIYAFSKNHQPVRTVQSGETFVIETYDCFQNQITSSETPFDSIDWNHINPATGPIYIEGAEPGDILAVKIEQIRLKGQGVMAVGPGLGVLGDRIPQFEAKMIPVEENRAVFDEHLSIPLNPMIGVIGVAPSGEDVSCGTPGPHGGNMDTKLITTGATVYFPVFVKGALFALGDLHAAMGDGEIGVSGIEISGEVTVTVRVMKGYSLNHPLLQNDDGIATIVSAKTLDEAVKQSVEEMVNLLLPHTPLTLNHLTMVLSAVGQTQISQVVDPLVTARFFVPRFVLEAYGIRLFED | not soluble
4 | MSGAIYRCMAIASEPLDALIIGAGHNGLVCAAYLARAGKRVLVLEAREVVGGAAVTEEFHPGFRNSVAAYTVSLLQPRVIADLALERHGLRVVPRRINNFLPLPNGDYLLAGAGRTAQDVARFSARDAAALPAYEARLEQLADVLRALALQPPPDVTDGGWLQALPQLWRAGKLGLQLQGLPLTLRQELLDLFTISAAEYLDRWFESAPIKALFGFDGIVGNYASPHTPGTAYVLLHHVFGQSNGVKGAWGHAIGGMGAITQAMAASAREYGAQLRTGCAVERVLVEQGHAVGVVTTAGETVRARAVVANVNPKLLYQRLMRPDDVPATTRERIAHYRCGSGTFRMNVALSRLPDFAALPGNGDHLTAGIILAPSLDYMDRAWHDARAFGWSREPVVELLIPSTLDDTLAPPGQHVASLFCQHVAPQLPDGRRWDDHREEVADLMIATVERYAPGFAASVLGRQVLSPLDLERMFGLVGGDIFHGALSLNQLFSARPLLGQGAYRGAVPGLYLCGSGTHPGGGVTGAPGHNAARVILGGLEHHHHHH | not soluble
5 | MSGATPVFTEINQIQGTGDKSPLISSGFISDDEYFVQGVVTARGESLLKGFYLQGLNDDFDPNSSEGIFVSTGSAPSLEIQPGALVCVKAKVQEYYGQTQLKPDTNNFLVQGHQAPVSVTELTINENETLAQALERHEGMQVKLTSHSDLRITRNFSFDYASKRNNMVLSHGEPLFKPTQLFAAESPEAIQLAEENAKRQITIESDNKAPNGEVPYFPDFATDSNQDGSADSYLRLGARIEGLEGVIAYSYGQYRLVTTNTISQENIITQAFDEDGLEHHHHHH | soluble
6 | MSGFLEQRLGHCLRQMAEKGLEALLVTHLTNSYYLTGFSGTAATVLITAKRRVLITDSRYTLLAKASVEGFDIIESRTPLKVVAELLEADQIDCLGFEDQVSFSFYQAMQAELSGITLLAQSGFVEHLR | soluble
7 | MSGIIATYLIHDDSHNLEKKAEQIALGLTIGSWTHLPHLLQEQLKQHKGNVIHVEELAEHEHTNSYLRKKVKRGIIKIEYPLLNFSPDLPAILTTTFGKLSLDGEVKLIDLTFSDELKKHFPGPKFGIDGIRNLLQVHDRPLLMSIFKGMIGRNIGYLKTQLRDQAIGGVDIVKDDEILFENALTPLTKRIVSGKEVLQSVYETYGHKTLYAVNLTGRTFDLKENAKRAVQAGADILLFNVFAYGLDVLQSLAEDDEIPVPIMAHPAVSGAYSASKLYGVSSPLLLGKLLRYAGADFSLFPSPYGSVALEKEEALAISKYLTEDDASFKKSFSVPSAGIHPGFVPFIVRDFGKDVVINAGGGIHGHPNGAQGGGKAFRTAIDATLQNKPLHEVDDINLHSALQIWGNPSYEVKL | soluble
8 | MSGKLTVITGPMYSGKTTELLSFVEIYKLGKKKVAVFKPKIDSRYHSTMIVSHSGNGVEAHVIERPEEMRKYIEEDTRGVFIDEVQFFNPSLFEVVKDLLDRGIDVFCAGLDLTHKQNPFETTALLLSLADTVIKKKAVCHRCGEYNATLTLKVAGGEEEIDVGGQEKYIAVCRDCYNTLKKRV | soluble
9 | MSGLDDRKKLTHAKNRKPLNDIPKSAENRPNTRSTSSRRGAEKDVPITFIGSSRTVKADLPEFTNTRSRRPLHSESKKELSRNPVSRGEEHSSSLPKSSPESSVSVMSSNASLWSACTEEVNKIGVCAKRESRNLRVYKMKSFTSNMEQILSNDNQLAPTVIRILNSRNSWCLNSCHACLTFIMENITSDNYGKRSACLKALASITNSLLDTIIGFASTKTRRIGVDVVAEERAAKATECIHNFRKIVKNRDKIYKQIDQETIYKLDAILERLKKVSSHK | not soluble
10 | MSGLTKIKPPKKARIGLYSAGLNTYWGQFEGLYDCLMGYNRFIEKRLSEWGEVFNFGMVDTEEKGREAGEFFNKNNVDIVFSHAATYYASATVLPVHQINNAPVIILNLQPTAEMAYDTTGTDRWLAQCVGCSIPEISNAFNRAGITFRAVNGLLGLTETPDFAKADEVTCERPEAVRAWKQIEEWCRAAAVKRNLQWARFGFLGGYYSGMLDMYSDFTMLQAQTGIDIEVLEMSDLDAYLKTVTEEEVQEKLKEIQDFFEISGDSPSDPIAKKPTEEQLTWSAKVAIAQEKMVRERNLDSVSYYYHGRDDYLEEVQSGFIVGFSLLNAQGIACAGEGDIKTALAMKIADICGTGGSFCEIVAADFNRDTMILGHDGPFHFAISKGKPILRGMGVYHGKRGSGVSVEAKVRPGAVTTLGVTQTGDGRLKFNISEGEAIDAPILLNGNTSTHIRFSQKPAEYMDRWFQEAPTHHLALSVGHNAELFKKIAELMDIPYAIY | soluble
11 | MSGPNGDLGMPVEAGAEGEEDGFGEAEYAAINSMLDQINSCLDHLEEKNDHLHARLQELLESNRQTRLEFQQQLGEAPSDASP | soluble
12 | MSGRGEPTMKTIIVGIDGSHAAITAALWGVDEAISRAVPLRLVSVIKPTHPSPDDYDRDLAHAERSLREAQSAVEAAGKLVKIETDIPRGPAGPVLVEASRDAEMICVGSVGIGRYASSILGSTATELAEKAHCPVAVMRSKVDQPASDINWIVVRMTDAPDNEAVLEYAAREAKLRQAPILALGGRPEELREIPDGEFERRVQDWHHRHPDVRVYPITTHTGIARFLADHDERVQLAVIGGGEAGQLARLVGPSGHPVFRHAECSVLVVRR | not soluble
13 | MSGSSHYPVANWNLDGIVSGLRGARQEWRGPRGRLREESESGVREFPSQESLRDIMRQLFGALFPMRLGPIDLREEVEDFYVGHTIGAALDALLHQVCLELQHLGRDDPQPYGQVLERAVDIVRRFGAELPAVRKALDLDVTAAYQGDPAARSVDEVLLCYPGVTAMIHHRLANVLYRLGAPMLARIVAEIAHSDTGIDIHPGATIGRSFFIDHGTGVVIGETAIIGERVRLYQMVTLGAKRFPPGENGELKKGLPRHPIIEDDVVIYAGATILGRITIGQGSTIGGNVWLTHSVPPNSTVTQAGAINDMPDCGLGGLEHHHHHH | not soluble
14 | MSGSTHTTERGTGRAAEAAPPATDRFACYVYGIVPEDVEVSPGTVGVGEPAGQVTLVRHGEIAALVSPVDVDRPLGRASDLVAHERLLDGAAAEVPVLPFRFGAVLTSPEAVVEELLAPHHDQFAAALRQLEGKAQHVLKARYAERPVLLEILRENAEARRLRDRIRDLPEDATRTERIRLGELITQAIEAKREADTQAVLDRFASCTVAANVRDPSHERDAAHVAFLVEHAKADEFAEAVEELSDEWADRVEVRVLGPMAPYDFVVAEG | not soluble
15 | MSGWPRIYYKLLNLPLSILVKSKSIPAEPAQELGLDTSRPIMYVLPYNSKADLLTLRAQCLAHDLPDPLEPLEIDGALLPRYVFIHGGPRVFTYYTPKEESVKLFHDYLDLHRSNPALDVQMVPVSVMFGRAPGREKGEDNPPLRMLNGVQKFFAISWLGRDSFVRFSPSVSLRRMADEHGTDKIIAQKLARVARMHFARQRLAAVGPRLPARQDLFNKLLASKAIARAVEDEARSKKISHEKAQQNAIALMEEIAANFSYEMIRLTDRILGFTWNRLYQGINVHNAERVRQLAHDGHEIVYVPCHRSHMDYLLLSYVLYHQGLVPPHIAAGINLNFWPAGPIFRRLGAFFIRRTFKGNKLYSTVFREYLGELFSRGYSVEYFVEGGRSRTGRLLDPKTGTLSMTIQAMLRGGTRPITLVPIYIGYEHVMEVGTYAKELRGATKEKESLPQMLKGLSKLRNLGQGYVNFGEPMPLMTYLNQHVPEWRESIDPIEAIRPAWLTPTVNSIAADLMVRINNAGAANAMNLCCTALLASRQRSLTREQLTEQLDCYLDLMRNVPYSTDSTVPAASAGELIAHALQMNKFEVEKDTIGDIIILPREQAVLMTYYRNNIAHMLIMPSLMAAIITQHRRISRDALQQHVEALYPMLKAELFLRWEREELASVIDALASEMQRQGLITLQDDELHINPTHSRTLQLLAAGARETLQRYAITFWLLSANPSINRSTLEKESRTVAQRLSVLHGINAPEFFDKAVFSSLVLTLRDEGYISDTGDAEPAETMKIYQMLADLITSDVRLTIESATQGE | not soluble
16 | MSHFFADHDAPLSMLSVKTEYFPQLTDKEQKYAHFMSKASHAGSRVVMRQVSHESEPIFDLILAIHSKLNGKYPEDDITQKQQTGLYLEYVSQFLSNLGNFKSFGDTKFIPRCEVKFFKQLLELAKINPSSSPLTLSPVDVNHEFTSHHLFSTINELIDIGIYHVEEKAALLGFPSQGYTSAYYLGLPVTPEDMALLKEQLFAELAILPENTRINKVGENSFQIWVASENVKNQITETYPSGQITLSNAVTKVEFIFGDHSREMRLVASYLKEAQKFAANDTQKAMLQEYINHFVTGSSQAHKEAQKLWVKDISPVIETNIGFIETYREPSGIIGEFESLVAIQNKERTAKFSSLVNNAEEFISLLPWSKDYEKPIFNPPDFTSLEVLTFTGSGIPAGINIPNYDDVRLKIGFKNVSLGNILSAAAKSSSKHPPSFISQEDRPIFEKYQSDSFEVQVDIHELLGHGSGKLLTEFTDGFNFDKENPPLGLDGKPVSTYYKVGETWGSKFGQLAGPFEECRAEVIAMFLLTNKKILDIFGFHDVESQDKVIYAGYLQMARAGLLALEYWNPKTGKWGQPHMQARFSIMKTFMKHSTDKNFLKLEMNSTNDDFAIKLDKSLIKTAGHECVKDYLKHLHVYKCSGDVEQGSKYFIDRSTVTPDLASLRDIVLSKRLPRRQFIQSNSYIDDNNKVTLKEYDETPQGMLQSFLDREL | soluble
